B1: PSMA-Heptamer: AF-Sm1 heptamerization domain fused with the 12 amino-acid PSMA-binding peptide WQPDTAHHWATL, self-assembled heptamer (protein)
chain: MWQPDTAHHWATLGPQPQPKPQPKPEPEPQPQGGMPPRPLDVLNRSLKSPVIVRLKGGREFRGTLDGYDIHMNLVLLDAEEIQNGEVVRKVGSVVIRGDTVVFVSPAPGGEHHHHHH
B2: PSMA monomer: PSMA-binding peptide WQPDTAHHWATL on a truncated, nonfunctional Sm1 domain lacking the C-terminal 23 residues (protein)
chain: MWQPDTAHHWATLGPQPQPKPQPKPEPEPQPQGGMPPRPLDVLNRSLKSPVIVRLKGGREFRGTLDGYDIHMNLVLLDAEEIQNGEVVHHHHHH

Biological target: T1, PSMA (Homo sapiens, UniProt Q04609)
T1 construct: the extracellular domains of EGFR, HER2, and PSMA that are immobilized on the surface of CM5 biosensor chips; purchased R&D System, Minneapolis, Minn
T1 sequence (Q04609 44-750 limits assumed): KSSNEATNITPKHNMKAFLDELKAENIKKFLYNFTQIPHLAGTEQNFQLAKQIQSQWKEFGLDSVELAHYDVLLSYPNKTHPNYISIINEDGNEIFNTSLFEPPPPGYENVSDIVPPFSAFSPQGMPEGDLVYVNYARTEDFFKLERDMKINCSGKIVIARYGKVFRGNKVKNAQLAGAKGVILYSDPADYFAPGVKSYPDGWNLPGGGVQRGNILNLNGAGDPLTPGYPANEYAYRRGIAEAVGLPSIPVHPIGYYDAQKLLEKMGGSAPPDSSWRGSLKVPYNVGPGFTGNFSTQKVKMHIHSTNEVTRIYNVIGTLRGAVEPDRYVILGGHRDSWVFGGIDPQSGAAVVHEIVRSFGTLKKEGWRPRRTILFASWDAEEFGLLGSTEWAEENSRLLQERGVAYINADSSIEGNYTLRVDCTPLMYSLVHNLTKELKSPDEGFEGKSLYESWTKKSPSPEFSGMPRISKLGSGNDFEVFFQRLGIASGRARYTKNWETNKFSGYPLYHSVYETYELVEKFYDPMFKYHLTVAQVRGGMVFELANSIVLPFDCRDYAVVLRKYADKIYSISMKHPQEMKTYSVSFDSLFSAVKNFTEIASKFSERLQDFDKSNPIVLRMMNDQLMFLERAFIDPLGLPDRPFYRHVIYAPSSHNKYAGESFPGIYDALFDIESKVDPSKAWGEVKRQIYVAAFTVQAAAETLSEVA
Assay: BIAcore surface plasmon resonance on immobilized PSMA
Assay type: binding
Conditions: for binding to the PSMA receptor: PSMA monomer injected at 100 uM
Experimental: BIAcore 2000 (BIAcore AB, Uppsala, Sweden) was used for surface plasmon resonance (SPR) analysis. Purified extracellular domain of recombinant human EGFR ECD-Fc, HER2 ECD-Fc, and PSMA were diluted in 10 mM sodium acetate pH 5.0 and immobilized on a CM5 sensor chip (GE healthcare) by amine coupling according to the manufacturer's instruction (about 2,500 resonance unit). Various concentrations of monomeric and heptameric targeting ligands were injected onto the flow cell in an HBS-P buffer (10 mM HEPES pH7.4, 150 mM NaCl, and 0.005% surfactant P20) at a flow rate of 20 μl/min or 30 μl/min. The dissociation constants (Kd) were calculated using BIAevaluation software (BIAcore) by fitting data on one to one Langmuir binding model.
The BIAcore 2000 (BIAcore AB, Uppsala, Sweden) was used for surface plasmon resonance analysis. 1 μg of purified extracellular domain of recombinant human EGFR ECD-Fc, HER2 ECD-Fc, or PSMA (R&D System, Minneapolis, Minn.), was diluted in a buffer containing 10 mM sodium acetate pH 5.0 and immobilized on a CM5 sensor chip (GE healthcare, Piscataway, N.J.) by amine coupling according to the manufacturer's instruction (about 2,500 resonance units). Various concentrations of monomeric or heptameric ligands were injected onto the flow cell in an HBS-P buffer (10 mM HEPES pH 7.4, 150 mM NaCl, and 0.005% surfactant P20) at a flow rate of 20 μl/min. The dissociation equilibrium constant (KD), the association rate (Ka) and the dissociation rate (Kd) were calculated using the BIAevaluation software (BIAcore) by fitting the data on a one to one Langmuir binding model.

Molecule | binding to the PSMA receptor | Kd (dissociation rate, one to one Langmuir model) [s⁻¹]
B1 | bind marginally | 1.09e-06
B2 | did not bind | –
